Assay results as given in patent US20250263481A1 (SHIJIAZHUANG YILING PHARMACEUTICAL, published 2025).

B1: YL-G1-19-04 (antibody, human IgG1, kappa)
heavy: not shown
light: DIVMTQSPSSLTVTAGEKVTLSCKSSQSLLNSGNQKNYLTWYQQRPGQPPKLLIYWASTRESGVPVRFTGSGSGADFTLTISSVQAEDLAVYFCQNAYFYPLTFGTGTKLELRRTVAAPSVFIFPPSDEQLKSGTASVVCLLNNFYPREAKVQWKVDNALQSGNSQESVTEQDSKDSTYSLSSTLTLSKADYEKHKVYACEVTHQGLSSPVTKSFNRGEC
notes: Mouse/human chimeric IgG1 kappa, first generation
B2: YL-G1-19-02 (antibody, human IgG1, kappa)
heavy: not shown
light: DIVMTQSPSSLTVTAGEKVTMSCKSSQSLLNSGNQKNYLTWYQQRPGQPPKLLIYWASTRESGVPVRFTGSGSGTDFTLTISSVQAEDLAVYYCQNAYIYPLTFGTGTKLELKRTVAAPSVFIFPPSDEQLKSGTASVVCLLNNFYPREAKVQWKVDNALQSGNSQESVTEQDSKDSTYSLSSTLTLSKADYEKHKVYACEVTHQGLSSPVTKSFNRGEC
notes: Mouse/human chimeric IgG1 kappa, first generation; also called YL-G1-02
B3: YL-G1-19-03 (antibody, human IgG1, kappa)
heavy: not shown
light: DIVMTQSPSSLTVTAGEKVTMSCKSSQSLLNSGNQKNYLTWYQQKPGQPPKLLIYWASTRESGVPDRFTGSGSGTDFTLTISSVQAEDLAIYYCQNNYFYPLTFGAGTRLELKRTVAAPSVFIFPPSDEQLKSGTASVVCLLNNFYPREAKVQWKVDNALQSGNSQESVTEQDSKDSTYSLSSTLTLSKADYEKHKVYACEVTHQGLSSPVTKSFNRGEC
notes: as for B1
B4: YL-G2-D (antibody, human IgG1, kappa)
heavy: QLQQSGPELEKPGASVKISCKASGYSFTGYKMNWVKQSNGESLEWIGNIDPYYGDTTYTQKFKGKATFTVDTSSSTAYMQLKSLTSEDSAVYFCARYNRGNTMDYWGQGTSVTVSSASTKGPSVFPLAPSSKSTSGGTAALGCLVKDYFPEPVTVSWNSGALTSGVHTFPAVLQSSGLYSLSSVVTVPSSSLGTQTYICNVNHKPSNTKVDKRVEPKSCDKTHTCPPCPAPELVGGPSVFLLPPKPKDTLMISRTPEVTCVVVDVSHEDPEVKFNWYVDGVEVHNAKTKPPEEQYNSTLRVVSVLTVLHQDWLNGKEYKCKVSNKALPAPIEKTISKAKGQPREPQVYTLPPSREEMTKNQVSLTCLVKGFYPSDIAVEWESNGQPENNYKTTPLVLDSDGSFFLYSKLTVDKSRWQQGNVFSCSVMHEALHNHYTQKSLSLSPGK
light: DIVMTQSPSSLTVTAGEKVTLSCKSSQSLLNSGNQKNYLTWYQQRPGQPPKLLIYWASTRESGVPVRFTGSGSGADFTLTISSVQAEDLAVYFCQNAYFYPLTFGTGTKLELRRTVAAPSVFIFPPSDEQLKSGTASVVCLLNNFYPREAKVQWKVDNALQSGNSQESVTEQDSKDSTYSLSSTLTLSKADYEKHKVYACEVTHQGLSSPVTKSFNRGEC
notes: Second generation, Fc-engineered form of YL-G1-19-04
B5: YL-G2-C (antibody, human IgG1, kappa)
heavy: QIQLVQSGPELRKPGETVKISCKASGFPFTTDGMSWVKQAPGKGLKWMGWINTYSGVPTYADDFKGRVAFSLETSASTAYLQIKNLKNEDTATYFCARFRRGNALDNWGQGTSVTVSSASTKGPSVFPLAPSSKSTSGGTAALGCLVKDYFPEPVTVSWNSGALTSGVHTFPAVLQSSGLYSLSSVVTVPSSSLGTQTYICNVNHKPSNTKVDKRVEPKSCDKTHTCPPCPAPELVGGPSVFLLPPKPKDTLMISRTPEVTCVVVDVSHEDPEVKFNWYVDGVEVHNAKTKPPEEQYNSTLRVVSVLTVLHQDWLNGKEYKCKVSNKALPAPIEKTISKAKGQPREPQVYTLPPSREEMTKNQVSLTCLVKGFYPSDIAVEWESNGQPENNYKTTPLVLDSDGSFFLYSKLTVDKSRWQQGNVFSCSVMHEALHNHYTQKSLSLSPGK
light: DIVMTQSPSSLTVTAGEKVTMSCKSSQSLLNSGNQKNYLTWYQQKPGQPPKLLIYWASTRESGVPDRFTGSGSGTDFTLTISSVQAEDLAIYYCQNNYFYPLTFGAGTRLELKRTVAAPSVFIFPPSDEQLKSGTASVVCLLNNFYPREAKVQWKVDNALQSGNSQESVTEQDSKDSTYSLSSTLTLSKADYEKHKVYACEVTHQGLSSPVTKSFNRGEC
notes: Second generation, Fc-engineered
B6: YL-G1-19-01 (antibody, human IgG1, kappa, V domains shown)
VH: QVQLQQSGAELVRPGTSVKVSCKASGYAFTNYLIEWVKQRPGQGLEWIGVINPGSGGTNYNEKFKGKATLTADKSSNTAYMQLSSLTSEDSAVYFCARVYYGNSFGYWGQGTLVTVSA
VL: DIVMTQSPSSLTVTAGEKVTMSCKSSQSLLNSGNQKNYLTWYQQKPGQPPKLLIYWASTRESGVPDRFTGSGSGTDFTLTISSVQAEDLAVYYCQNEYFYPFTFGSGTKLEIKR
notes: also called chimeric antibody with the variable region of one of the mouse mAbs

What was measured:
[1] = target: human CLDN18.2 expressed on cells (human); experiment: cell-based or functional assay
[2] = target: T1, human CLDN18.1 expressed on cells (human, UniProt P56856 1-261); experiment: flow cytometry (geometric mean, Alexa Fluor 647 anti-human IgG Fc secondary) on CLDN18.1-expressing 293T cells
T1 construct: also called huCLDN18.1; CLDN18.1-expressing 293T cells
Procedure: (§1) CLDN18.2-expressing 293T cells and CLDN18.1-expressing 293T cells at a density of 2×10⁶ cells/ml in FACS buffer ([…]) were mixed with a dilution series ([…] in FACS buffer) of the chimeric antibodies, the reference antibody, or a IgG negative control (50 μL) in a 96-well V-bottom plate and incubated for 30 min on ice. After a wash with 200 μL/well FACS buffer, cells were resuspended in 30 μL/well secondary antibody Alexa Fluor® 647 AffiniPure Goat Anti-Human IgG, […] specific (Jackson, Cat. #109-605-098) and incubated for 20 min on ice. After three washes with 200 μL/well FACS buffer, cells were resuspended with 150 μl/well FACS buffer and subjected to FACS using BD LSR II Flow Cytometer (HTS). Geometric mean was used for data analysis and plots were made using Prism GraphPad.

[3] = target: human CLDN18.2 expressed on cells (human); experiment: cell-based or functional assay; remark: listed apart in the source
[4] = target: human CLDN18.2 expressed on cells (human); experiment: cell-based or functional assay; remark: listed apart in the source
[5] = target: T2, human CLDN18.2 expressed on cells (human); experiment: flow cytometry (geometric mean, Alexa Fluor 647 anti-human IgG Fc secondary) on CLDN18.2-expressing 293T cells
T2 construct: also called huCLDN18.2; CLDN18.2-expressing 293T cells
Procedure: as §1

[6] = target: T2, human CLDN18.2 expressed on cells; experiment: cell-based or functional assay; remark: listed apart in the source
[7] = target: T2, human CLDN18.2 expressed on cells; experiment: cell-based or functional assay; remark: listed apart in the source
[8] = target: T2, human CLDN18.2 expressed on cells; experiment: flow cytometry (percent FITC-positive cells, GAH-FITC secondary) on CHO cells expressing huCLDN18.2
Procedure: CHO cells expressing huCLDN18.2 were used to assess the binding of the antibodies. Cells were seeded at 5×10⁵ cells per 100 μl into a well of a 96-well plate for each sample. Then, 100 μl of each serially diluted antibody was added to the cells, each dilution started at 40 µg/ml and was diluted 5-fold. Therefore, the final concentration of each antibody starts at 20 µg/ml followed by a 5-fold serial dilution. After 1 hour, the cells were washed twice and 100 μl of GAH-FITC (1:200 dilution) was added to each well. After 30 minutes, the cells were washed twice and resuspended in 120 μl of FACS buffer. The cells were analyzed via flow cytometry.
Unstained cells were used as a reference to set up overall target cell gating and to establish the FITC-negative populations, allowing us to establish the FITC-positive cell gate for each cell line. Additionally, the mean fluorescence intensity (MFI) of the entire population of cells was calculated to secondarily validate the FITC-positive results. The ratio of the gated positive cell number to the total live cell number is taken as the percentage of positive cells.

[9] = target: T2, human CLDN18.2 expressed on cells; experiment: KinExA 4000, antibody constant, CHO cells over-expressing huCLDN18.2 titrated
Procedure: A KinExA 4000 instrument was also used to measure binding affinity of the antibodies to surface protein of intact cells, i.e., CHO cells over-expressing huCLDN18.2. Concentration of the antibodies was held constant (CBP) and concentration of whole cells with surface protein were varied (titrant). Concentration of whole cells with surface proteins were diluted three-fold. Titrated cells were incubated with the constant binding partner (CBP). Once equilibrium was reached, the samples were centrifuged, the supernatants were recovered, and the free CBP was detected with a fluorescently labeled anti-CBP molecule.
To establish a more accurate Kd, two equilibrium curves were prepared and analyzed. One curve with low concentration of CBP at 100 pM (200 pM binding sites) and 10⁶ cells/mL with three-fold dilutions, and one curve with high concentration of CBP at 10 nM (20 nM binding sites) and 10⁶ cells/mL with three-fold dilutions. The KinExA 4000 measured the amount of unbound CBP in solution. Analysis was performed using Sapidyne Instruments n-Curve Analysis Software version 4.4.26.

T1 sequence (P56856 whole entry): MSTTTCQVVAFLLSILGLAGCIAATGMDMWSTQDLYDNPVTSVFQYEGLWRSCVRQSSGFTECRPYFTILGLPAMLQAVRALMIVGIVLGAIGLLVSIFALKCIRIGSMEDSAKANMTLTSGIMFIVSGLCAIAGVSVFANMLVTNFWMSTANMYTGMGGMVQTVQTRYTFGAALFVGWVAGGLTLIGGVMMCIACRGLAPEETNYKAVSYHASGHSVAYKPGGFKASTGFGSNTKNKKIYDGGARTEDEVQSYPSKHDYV

Row | Binder | CDC on KATOIII CLDN18.2 cells, LDH: EC50 [1] | CDC on KATOIII CLDN18.2 cells, LDH: max (% cytotoxity) [1] | binding result [2] | ADCC on NCI-N87 CLDN18.2 cells, LDH: EC50 [3] | ADCC on NCI-N87 CLDN18.2 cells, LDH: max (% cytotoxity) [3] | CDC on CT26 CLDN18.2 cells, LDH: EC50 [4] | CDC on CT26 CLDN18.2 cells, LDH: max (% cytotoxity) [4] | EC50 (read off the curve) [5] | ADCC on KATOIII CLDN18.2 cells, LDH: EC50 [6] | ADCC on KATOIII CLDN18.2 cells, LDH: max (% cytotoxity) [6] | ADCC, FACS: EC50 [7] | ADCC, LDH: EC50 [7] | EC50 (read off the curve) [8] | Kd [9]
1 | B1 | 4.76 nM | 48.3% | no binding (tested: about 30 ug/ml) | 0.067 nM | 12.6% | 0.19 nM | 59.2% | ~0.7 µg/mL | 0.14 nM | 15.4% |  |  |  | 
2 | B2 | 1.95 nM | 35.4% | no binding (tested: about 30 ug/ml) | 0.072 nM | 16.8% | 0.26 nM | 73.4% | ~0.7 µg/mL | 0.16 nM | 19.9% | ~0.224 nM | 0.3 nM |  | 
3 | B3 | ~4.98 nM | 67% | no binding (tested: about 30 ug/ml) | 0.13 nM | 15.2% | 0.24 nM | 62.2% | ~0.6 µg/mL | 0.21 nM | 16.7% |  |  |  | 
4 | B4 | 2.4 nM | 49.2% |  | 0.0089 nM | 18.6% | 0.12 nM | 71.8% |  | 0.021 nM | 18.4% |  |  | ~0.3 ng/mL | 0.0131 nM
5 | B5 | ~6.04 nM | 74.6% |  | 0.0078 nM | 14.9% | 0.1 nM | 65.2% |  | 0.019 nM | 17.6% |  |  | ~0.6 ng/mL | 0.0386 nM
6 | B6 |  |  | no binding (tested: about 30 ug/ml) |  |  |  |  | ~1 µg/mL |  |  |  |  |  | 
